The text below walks through data of the supplement of paper PMC10567573.

B1: EHMT1 (parent)
chain: EEINKNISDFGRQQLLPPFPSLHQ
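Further: lentivirally expressed fusions sorted by FACS into six bins by GFP to DsRed ratio, PSI derived from sequencing read proportions per bin multiplied by bin number.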

The variants in the series derive from B1. As to the kind of experiment: protein stability index of a GFP-peptide fusion (GPS, HEK-293T) (PSI 1-6); higher = more stable. The following applies: c terminus: a fixed tail appended.
Turning to EEPNKNISDFGRQQLLPPFPSLHQ [I3P], the protein stability index came out at 2.68.
On to EEWNKNISDFGRQQLLPPFPSLHQ [I3W], for which the protein stability index worked out at 2.39.
On to EEENKNISDFGRQQLLPPFPSLHQ [I3E], for which the protein stability index came out at 3.78.
The value for EEMNKNISDFGRQQLLPPFPSLHQ [I3M] was 2.74; that for EEINKNISGFGRQQLLPPFPSLHQ [D9G] was 2.65.
EEINKNISSFGRQQLLPPFPSLHQ [D9S]: the protein stability index is 2.42.
Under EEINENISDFGRQQLLPPFPSLHQ [K5E] stands 3.15.
The value for EEINFNISDFGRQQLLPPFPSLHQ [K5F] was 2.28; that for EEINRNISDFGRQQLLPPFPSLHQ [K5R] was 2.57.
The value for EEINHNISDFGRQQLLPPFPSLHQ [K5H] was 2.86; that for EEINGNISDFGRQQLLPPFPSLHQ [K5G] was 2.71.
Take EEINKNISDFGGQQLLPPFPSLHQ [R12G]: the protein stability index was 3.15.
Under EEINKNISDFGCQQLLPPFPSLHQ [R12C] stands 2.79.
The value for EEINKNISDFGRQQLLPPFPSHHQ [L22H] was 3.42; that for EEINKNISDFGRQQLLPPFPSNHQ [L22N] was 4.04; that for EEINKNISDFGRQQLLPPFPSQHQ [L22Q] was 3.65.
EEINKNISDFGRQQLLPPFPSPHQ [L22P]: the protein stability index was 3.91.
The value for EEINKSISDFGRQQLLPPFPSLHQ [N6S] was 3.15; that for EEINKCISDFGRQQLLPPFPSLHQ [N6C] was 2.44.
Under EEINKKISDFGRQQLLPPFPSLHQ [N6K] stands 2.38; under EEINKNISDFGRQQLTPPFPSLHQ [L16T], 3.5; under EEINKNISDFGRQQLIPPFPSLHQ [L16I], 2.82.
As for EEINKNISDFGRQQLDPPFPSLHQ [L16D], the protein stability index was 4.
The value for EEINKNIYDFGRQQLLPPFPSLHQ [S8Y] was 2.53.
EEINKNIKDFGRQQLLPPFPSLHQ [S8K]: the protein stability index came out at 3.02.
The value for EEINKNICDFGRQQLLPPFPSLHQ [S8C] was 2.62.
The value for EEINKNIGDFGRQQLLPPFPSLHQ [S8G] was 2.55; that for EEIQKNISDFGRQQLLPPFPSLHQ [N4Q] was 2.7.
The value for EEIVKNISDFGRQQLLPPFPSLHQ [N4V] was 2.53.
As for EEIHKNISDFGRQQLLPPFPSLHQ [N4H], the protein stability index worked out at 2.94.
Under EEIPKNISDFGRQQLLPPFPSLHQ [N4P] stands 2.69.
Under EEIYKNISDFGRQQLLPPFPSLHQ [N4Y] stands 2.01.
Turning to EEINKNISDVGRQQLLPPFPSLHQ [F10V], the protein stability index was determined as 3.04.
On to EEINKNISDPGRQQLLPPFPSLHQ [F10P], for which the protein stability index came to 3.31.
Regarding EEINKNISDKGRQQLLPPFPSLHQ [F10K], the protein stability index was 3.45.
The value for EEINKNISDFGRQQYLPPFPSLHQ [L15Y] was 2.97.
EEINKNISDFGRQQVLPPFPSLHQ [L15V]: the protein stability index came out at 3.62.
As to EEINKNISDFGRQQCLPPFPSLHQ [L15C], the protein stability index is 2.54.
Under EEINKNISDFGRQQDLPPFPSLHQ [L15D] stands 3.81; under EEINKNISDFGRQQTLPPFPSLHQ [L15T], 3.15.
For EEINKNISDFKRQQLLPPFPSLHQ [G11K], the protein stability index stood at 2.59.
EEINKNISDFIRQQLLPPFPSLHQ [G11I]: the protein stability index was determined as 1.71.
As to EEINKNISDFSRQQLLPPFPSLHQ [G11S], the protein stability index is 2.73.
On to EEINKNISDFGRQQLLPPQPSLHQ [F19Q], for which the protein stability index amounted to 4.38.
The value for EEINKNISDFGRQQLLPPPPSLHQ [F19P] was 4.41; that for EEINKNISDFGRQQLLPPVPSLHQ [F19V] was 3.76.
The value for EEINKNISDFGRQQLLPPTPSLHQ [F19T] was 4.04.
Regarding EEINKNISDFGRQQLLPPYPSLHQ [F19Y], the protein stability index was 3.29.
The value for EEINKNISDFGRQQLLPPFPSLEQ [H23E] was 3.59.
For the variant EEINKNISDFGRQQLLPPFPSLTQ [H23T], the protein stability index came to 3.39.
Under EEINKNISDFGRQQLLPPFPSLDQ [H23D] stands 3.85; under EEINKNISDFGRQQLLPTFPSLHQ [P18T], 2.92.
The value for EEINKNISDFGRQQLLPDFPSLHQ [P18D] was 3.46; that for EEINKNISDFGRQQLLPVFPSLHQ [P18V] was 3.34; that for EEINKNISDFGRMQLLPPFPSLHQ [Q13M] was 2.94.
Under EEINKNISDFGRGQLLPPFPSLHQ [Q13G] stands 3; under EEINKNISDFGRQQLLPPFPSLHL [Q24L], 3.78; under EEINKNISDFGRQQLLPPFPSLHW [Q24W], 3.45.
EEINKNISDFGRQQLLPPFPSLHI [Q24I]: the protein stability index is 2.17.
Under EEINKNISDFGRQQLLPPFPSLHR [Q24R] stands 2.96.
The value for EEINKNISDFGRQQLLPPFPSLHT [Q24T] was 2.34; that for EEINKNISDFGRQILLPPFPSLHQ [Q14I] was 2.77.
The value for EEINKNISDFGRQELLPPFPSLHQ [Q14E] was 3; that for EEINKNISDFGRQMLLPPFPSLHQ [Q14M] was 2.49.
As for EEINKNISDFGRQTLLPPFPSLHQ [Q14T], the protein stability index worked out at 2.45.
As to EEINKNISDFGRQSLLPPFPSLHQ [Q14S], the protein stability index turned out to be 2.62.
The value for EEINKNISDFGRQNLLPPFPSLHQ [Q14N] was 2.54; that for EEINKNISDFGRQWLLPPFPSLHQ [Q14W] was 2.03; that for EEINKNISDFGRQKLLPPFPSLHQ [Q14K] was 2.84.
The value for EFINKNISDFGRQQLLPPFPSLHQ [E2F] was 1.74; that for EVINKNISDFGRQQLLPPFPSLHQ [E2V] was 2.12.
In the case of EEINKNISDFGRQQLLPPFCSLHQ [P20C], the protein stability index stood at 2.87.
In the case of EEINKNISDFGRQQLLPPFTSLHQ [P20T], the protein stability index worked out at 3.01.
Under EEINKNISDFGRQQLLPPFFSLHQ [P20F] stands 2.61; under EEINKNISDFGRQQLLPPFDSLHQ [P20D], 3.5; under EEINKNISDFGRQQLLPPFLSLHQ [P20L], 2.73.
The value for EEINKNCSDFGRQQLLPPFPSLHQ [I7C] was 2.88; that for EEINKNTSDFGRQQLLPPFPSLHQ [I7T] was 2.63; that for EEINKNHSDFGRQQLLPPFPSLHQ [I7H] was 2.73.
The value for EEINKNISDFGRQQLLPPFPDLHQ [S21D] was 3.9; that for EEINKNISDFGRQQLLPPFPMLHQ [S21M] was 2.01.
On to EEINKNISDFGRQQLLPPFPRLHQ [S21R], for which the protein stability index stood at 3.21.
Take EEINKNISDFGRQQLLPPFPGLHQ [S21G]: the protein stability index worked out at 2.7.
Under EEINKNISDFGRQQLLPPFPALHQ [S21A] stands 2.36; under EEINKNISDFGRQQLLPPFPVLHQ [S21V], 2.82.
EEINKNISDFGRQQLLPPFPFLHQ [S21F]: the protein stability index was determined as 2.59.
For QEINKNISDFGRQQLLPPFPSLHQ [E1Q], the protein stability index was 2.73.
The value for CEINKNISDFGRQQLLPPFPSLHQ [E1C] was 2.44; that for WEINKNISDFGRQQLLPPFPSLHQ [E1W] was 1.91.
Consider TEINKNISDFGRQQLLPPFPSLHQ [E1T], for which the protein stability index is 2.9.
In the case of FEINKNISDFGRQQLLPPFPSLHQ [E1F], the protein stability index was 2.3.
For the variant NEINKNISDFGRQQLLPPFPSLHQ [E1N], the protein stability index came to 2.44.
Take EEINKNISDFGRQQLLRPFPSLHQ [P17R]: the protein stability index worked out at 2.94.
Under EEINKNISDFGRQQLLYPFPSLHQ [P17Y] stands 2.54.
